What all share (assay): cell-based or functional assay
Assay [1] concerns the target T1, GDF11 (UniProt O95390).
T1 sequence (looked up): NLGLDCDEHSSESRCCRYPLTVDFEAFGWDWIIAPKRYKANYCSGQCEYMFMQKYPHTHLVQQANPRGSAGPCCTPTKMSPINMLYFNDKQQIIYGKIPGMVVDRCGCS

For assay [2], the target named is T2, Activin A (UniProt P08476).
T2 sequence (looked up): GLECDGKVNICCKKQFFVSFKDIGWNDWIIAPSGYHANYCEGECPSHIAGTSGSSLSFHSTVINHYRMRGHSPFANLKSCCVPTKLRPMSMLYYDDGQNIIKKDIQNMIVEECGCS

For assay [3], the target named is T1, GDF11. This is another data set of the same source.
Assay [4] deals with T2, Activin A. The source holds these as a separate data set.

Where two headings read alike, the source gives them in different places.

B1: ActRIIB(24-131)-hFc (Fc fusion, not shown: a dimerising Fc or GST)
chain: AETRECIYYNANWELERTNQSGLERCEGEQDKRLHCYASWRNSSGTIELVKKGCWLDDFNCYDRQECVATEENPQVYFCCCEGNFCNERFTHLPEAGGPEVTYEPPPT
In the case of B1, the results for the IC50 (ng/mL), conditioned media with GDF11 [1] and with Activin A [2] were 69 ng/mL and 105 ng/mL, respectively.

B2: ActRIIB(22-131)-hFc (Fc fusion, not shown: a dimerising Fc or GST)
chain: GEAETRECIYYNANWELERTNQSGLERCEGEQDKRLHCYASWRNSSGTIELVKKGCWLDDFNCYDRQECVATEENPQVYFCCCEGNFCNERFTHLPEAGGPEVTYEPPPT
Regarding B2, the values for the IC50 (ng/mL), conditioned media in the assay with GDF11 [1] and with Activin A [2] were 71 ng/mL and 100 ng/mL, respectively.

B3: ActRIIB(20-132)-hFc (Fc fusion, not shown: a dimerising Fc or GST)
chain: GRGEAETRECIYYNANWELERTNQSGLERCEGEQDKRLHCYASWRNSSGTIELVKKGCWLDDFNCYDRQECVATEENPQVYFCCCEGNFCNERFTHLPEAGGPEVTYEPPPTA
In the case of B3, the values for the IC50 (ng/mL), conditioned media with GDF11 [3] and with Activin A [4] were 87 ng/mL and 32 ng/mL, respectively.

B4: ActRIIB(21-131)-hFc (Fc fusion, not shown: a dimerising Fc or GST)
chain: RGEAETRECIYYNANWELERTNQSGLERCEGEQDKRLHCYASWRNSSGTIELVKKGCWLDDFNCYDRQECVATEENPQVYFCCCEGNFCNERFTHLPEAGGPEVTYEPPPT
For B4, the IC50 (ng/mL), conditioned media was determined as 121 ng/mL in the assay with GDF11 [1] and 325 ng/mL with Activin A [2].

B5: ActRIIB(23-131)-hFc (Fc fusion, not shown: a dimerising Fc or GST)
chain: EAETRECIYYNANWELERTNQSGLERCEGEQDKRLHCYASWRNSSGTIELVKKGCWLDDFNCYDRQECVATEENPQVYFCCCEGNFCNERFTHLPEAGGPEVTYEPPPT
Regarding B5, the IC50 (ng/mL), conditioned media in the assay with GDF11 [1] was 60 ng/mL; with Activin A [2], 43 ng/mL.

B6: ActRIIB(20-128)-hFc (Fc fusion, not shown: a dimerising Fc or GST)
chain: GRGEAETRECIYYNANWELERTNQSGLERCEGEQDKRLHCYASWRNSSGTIELVKKGCWLDDFNCYDRQECVATEENPQVYFCCCEGNFCNERFTHLPEAGGPEVTYEP
As for B6, the IC50 (ng/mL), conditioned media came out at 130 ng/mL with GDF11 [3] and 158 ng/mL with Activin A [4].

B7: ActRIIB(20-131)-hFc (Fc fusion, not shown: a dimerising Fc or GST)
chain: GRGEAETRECIYYNANWELERTNQSGLERCEGEQDKRLHCYASWRNSSGTIELVKKGCWLDDFNCYDRQECVATEENPQVYFCCCEGNFCNERFTHLPEAGGPEVTYEPPPT
Consider B7, for which the IC50 (ng/mL), conditioned media with GDF11 [1] was 183 ng/mL; in the assay with Activin A [2], 201 ng/mL; with GDF11 [3] it was 120 ng/mL; in the assay with Activin A [4], 44 ng/mL.
